Patent CN113512118A (INST BIOPHYSICS CAS, dated 2021)

Molecular target: T1, sCD146蛋白 (CD146胞外区蛋白, Sino Biological 10115-H08H-20) (human, UniProt P43121 24-559)
T1 construct: extracellular domain; also called 胞外区CD146蛋白
T1 sequence (looked up): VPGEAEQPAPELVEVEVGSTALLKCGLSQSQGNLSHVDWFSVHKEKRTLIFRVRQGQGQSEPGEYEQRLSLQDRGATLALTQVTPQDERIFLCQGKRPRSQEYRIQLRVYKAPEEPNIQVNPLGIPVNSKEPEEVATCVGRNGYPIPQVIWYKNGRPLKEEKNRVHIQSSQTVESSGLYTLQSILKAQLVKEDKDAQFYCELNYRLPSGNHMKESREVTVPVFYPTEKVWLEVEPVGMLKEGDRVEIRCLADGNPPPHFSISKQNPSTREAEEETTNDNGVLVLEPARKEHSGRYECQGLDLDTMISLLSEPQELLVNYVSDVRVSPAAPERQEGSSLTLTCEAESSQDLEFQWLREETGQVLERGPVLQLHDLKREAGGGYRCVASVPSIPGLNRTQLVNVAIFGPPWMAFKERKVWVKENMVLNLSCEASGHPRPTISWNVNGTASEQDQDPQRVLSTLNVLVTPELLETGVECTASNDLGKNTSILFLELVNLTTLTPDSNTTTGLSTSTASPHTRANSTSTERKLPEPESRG
Test: BLI (Octet Red96), antibody on Anti-Mouse Fc Capture sensor, sCD146 at 250-3.91 nM

B1: AA98抗体 (mouse monoclonal anti-CD146 antibody AA98) (antibody, mouse IgG2a, kappa, V domains shown)
VH: EVQLLESGAELVRPGASVKLSCKTSGYIFTNYWIHWVKNRSGNGLEWIARIYPGTDITYYNEKFKGKATLTVDKSSSSAYMLLSSLKSEDSSVYFCARSGGYWYFDVWGAGTTVTVSS
VL: ELVMTQSPASLAVSLGQRATISCRASKSVSISGYSYMHWYQQKPGQPPKLLIYLASNLESGVPARFSGSGSGTDFTLNIHPVEEEDAATYYCQHSRELPYTFGGGTKLEIKR
notes: also called 母本AA98抗体; 亲本AA98抗体
  Kd: 1.12 nM
